Test results from patent US20180263919A1, “THERAPEUTIC ELECTROSPUN FIBER COMPOSITIONS” (The Johns Hopkins University, priority 2006, published 2018).

What was measured:
[1] = in vivo, iv; cited from earlier work
[2] = rat, in vivo; cited from earlier work
PC12 cells [3] = assay: Bioactivity of released NGF: differentiation of PC12 cells into neurons; type: cell-based, rat; settings: positive control, fresh NGF at 400 ng/ml
PC12 cells [4] = settings: Thoenen and Bard; cited from earlier work

Substance	biologic half-life [1]	elimination half-life [2]	percentage of PC12 cells induced to differentiate (PC12 cells [3])	threshold for induction of PC12 cell differentiation (PC12 cells [4])
bFGF: basic fibroblast growth factor	3 minutes	–	–	–
NGF: Recombinant human n-nerve growth factor (NGF) from R&D Systems	–	less than 5 hours	20-55%	around 0.5 ng/ml
PDGF	2 minutes	–	–	–
